{
  "source": "paper PMC13218722",
  "about": "(2026)",
  "molecular_target": "LFA-1 (Homo sapiens, UniProt P20701)",
  "sequence (P20701 26-1170, chain 1 of 2)": "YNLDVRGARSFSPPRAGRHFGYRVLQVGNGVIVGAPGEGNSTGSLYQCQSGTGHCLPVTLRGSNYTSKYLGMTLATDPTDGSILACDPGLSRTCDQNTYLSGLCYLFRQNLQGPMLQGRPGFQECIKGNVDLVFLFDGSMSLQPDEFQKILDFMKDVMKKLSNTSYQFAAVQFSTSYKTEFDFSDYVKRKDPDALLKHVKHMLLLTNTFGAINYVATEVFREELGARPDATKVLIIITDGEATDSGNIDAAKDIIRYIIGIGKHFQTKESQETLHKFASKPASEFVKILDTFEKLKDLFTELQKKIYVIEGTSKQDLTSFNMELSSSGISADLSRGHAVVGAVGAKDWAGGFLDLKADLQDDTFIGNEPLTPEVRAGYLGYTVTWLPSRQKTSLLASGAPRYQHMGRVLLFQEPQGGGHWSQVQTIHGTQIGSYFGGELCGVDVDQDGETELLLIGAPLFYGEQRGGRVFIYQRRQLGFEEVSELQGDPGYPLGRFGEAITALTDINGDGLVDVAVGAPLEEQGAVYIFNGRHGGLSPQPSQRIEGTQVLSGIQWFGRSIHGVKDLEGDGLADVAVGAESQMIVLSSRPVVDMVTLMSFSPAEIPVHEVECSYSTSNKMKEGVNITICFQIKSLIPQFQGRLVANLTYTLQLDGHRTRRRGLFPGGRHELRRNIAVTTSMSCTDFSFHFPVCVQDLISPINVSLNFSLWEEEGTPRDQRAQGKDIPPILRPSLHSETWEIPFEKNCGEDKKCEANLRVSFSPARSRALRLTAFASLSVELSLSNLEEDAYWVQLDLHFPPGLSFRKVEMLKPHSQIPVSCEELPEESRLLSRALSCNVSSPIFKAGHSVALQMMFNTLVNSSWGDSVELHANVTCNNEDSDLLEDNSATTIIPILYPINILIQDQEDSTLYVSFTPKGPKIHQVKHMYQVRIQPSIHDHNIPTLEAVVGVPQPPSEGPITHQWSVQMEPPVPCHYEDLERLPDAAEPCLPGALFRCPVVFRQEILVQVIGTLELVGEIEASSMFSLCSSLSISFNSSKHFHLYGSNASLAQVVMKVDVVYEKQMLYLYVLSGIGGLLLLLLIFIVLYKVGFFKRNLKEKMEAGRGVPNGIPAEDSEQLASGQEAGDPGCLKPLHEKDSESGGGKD",
  "sequence (chain, as listed by the source, chain 2 of 2)": "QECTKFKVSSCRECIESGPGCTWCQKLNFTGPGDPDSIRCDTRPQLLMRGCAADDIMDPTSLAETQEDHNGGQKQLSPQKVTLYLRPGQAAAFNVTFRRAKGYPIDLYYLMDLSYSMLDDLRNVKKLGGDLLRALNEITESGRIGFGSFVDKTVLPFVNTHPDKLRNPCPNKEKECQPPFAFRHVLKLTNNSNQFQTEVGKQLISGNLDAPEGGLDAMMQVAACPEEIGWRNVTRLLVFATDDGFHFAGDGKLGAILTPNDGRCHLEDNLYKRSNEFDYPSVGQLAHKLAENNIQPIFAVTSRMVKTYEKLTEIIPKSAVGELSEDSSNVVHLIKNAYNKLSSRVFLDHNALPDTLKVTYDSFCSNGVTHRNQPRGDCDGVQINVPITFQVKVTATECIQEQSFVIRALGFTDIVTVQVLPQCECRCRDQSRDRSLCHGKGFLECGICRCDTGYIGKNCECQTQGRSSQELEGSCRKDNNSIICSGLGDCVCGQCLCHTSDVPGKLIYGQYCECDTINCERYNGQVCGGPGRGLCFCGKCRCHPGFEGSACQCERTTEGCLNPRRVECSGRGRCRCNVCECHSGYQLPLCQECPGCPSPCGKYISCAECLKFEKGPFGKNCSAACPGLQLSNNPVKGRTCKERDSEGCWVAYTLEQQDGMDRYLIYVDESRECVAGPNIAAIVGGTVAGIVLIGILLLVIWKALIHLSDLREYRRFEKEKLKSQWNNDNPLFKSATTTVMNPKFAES",
  "assay": "BLI",
  "data": [
    {"binder": "GBP-130 ectodomain (protein) MRLSKVSDIKSTGVSNYKNFNSKNSSKYSLMEVSKKNEKKNSLGAFHSKKILLIFGIIYVVLLNAYICGDKYEKAVDYGFRESRILAEGEDTCARKEKTTLRKSKQKTSTRTVATQTKKDEENKSVVTEEQKVESDSEKQKRTKKVVKKQINIGDTENQKEGKNVKKVIKKEKKKEESGKPEENKHANEASKKQEPKASKVSQKPSTSTRSNNEVKIRAASNQETLTSADPEGQIMREYAADPEYRKHLEIFYKILTNTDPNDEVERRNADNKEDLTSADPEGQIMREYASDPEYRKHLEIFYKILTNTDPNDDVERRNADNKEDLTSADPEGQIMREYAADPEYRKHLEVFHKILTNTDPNDEVERRNADNKEDLTSADPEGQIMREYAADPEYRKHLEVFHKILTNTDPNDEVERRNADNKELTSSDPEGQIMREYAADPEYRKHLEVFHKILTNTDPNDEVERRNADNKEDLTSADPEGQIMREYAADPEYRKHLEVFHKILTNTDPNDEVERRNADNKEDLTSADPEGQIMREYAADPEYRKHLEIFHKILTNTDPNDEVERRNADNKEDLTSADPEGQIMREYAADPEYRKHLEIFYKILTNTDPNDEVERRNADNKEELTSSDPEGQIMREYAADPEYRKHLEIFHKILTNTDPNDEVERRNADNKEDLTSADPEGQIMREYAADPEYRKHLEIFYKILTNTDPNDEVERRNADNKEDLTSADPEGQIMREYASDPEYRKHLEIFYKILTNTDPNDDVERRNADNKEDLTSADPEGQIMREYAADPEYRKHLEVFHKILTNTDPNDEVERQNADNNEA", "values": [
      {"measurement": "Kd", "result": 15, "unit": "nM"}
    ]}
  ]
}
